Laboratory results from patent US6274553A, “Method for stabilizing peptides and freeze-dried medicinal compositions containing peptides obtained by using the method” (Japan Energy Corporation, priority 1997, dated 2001).

Assays:
Type in all cases: physicochemical
[1] = Storage stability of lyophilized HV1C3 at 60° C., pH adjusting agents (Experiment Example 2); details: saccharose, mannitol
Method: (§1) Hirudin variant HV1C3, purified saccharose, and mannitol were dissolved in purified water to a final concentration of 6 mg/ml (0.86 mM), 1.6 mg/ml (4.7 mM), and 10 mg/ml (55 mM), respectively. The resulting solution was divided into five equal portions. Four of these portions were adjusted to pH 5.5 with the addition of 30 mM of acetic acid, tartaric acid, citric acid, or phosphoric acid. The peptide solutions for which the pH was thus adjusted and the peptide solution without pH adjustment were filtered through a 0.22 μm membrane filter. The filtrates were filled into 6 ml vials in the amount of 1 ml for each vial. 50 such vials were prepared for each pH of the solution, 250 vials in total. All these 250 vials were lyophilized.
(§2) The lyophilized samples were stored in an incubator at 60° C. and removed from the incubator after 1, 2, 3, 4, 5, 6, 7, and 8 weeks, respectively. 1 ml of purified water was added to each vial removed. Solutions further diluted 50-fold were used to measure the amount (percentage) of the hirudin variant HV1C3 remaining in the lyophilized sample in the same manner as in Experiment Example 1.

[2] = Storage stability of lyophilized HV1C3 at 60° C., pH with tartaric acid (Experiment Example 3); details: saccharose, mannitol
Method: as §1, with “four” for “five”, “Three” for “Four”, “pHs 5.0, 5.5, and 6.0 using” for “pH 5.5 with the addition of”, “mM” for “mM of acetic acid,”, “tartaric” for “tartaric acid, citric acid, or phosphoric”, “200” for “250”
as §2

[3] = Amount of isomers in lyophilized HV1C3 stored at 60° C., saccharose/mannitol (Experiment Example 5); details: pH 5.5, 5 mM tartaric acid
Method: In the same manner as in Experiment Example 1, hirudin variant HV1C3, purified saccharose, and mannitol were dissolved in purified water to a concentration of 6 mg/ml (0.86 mM) of hirudin variant HV1C3 and concentrations of purified saccharose and mannitol respectively shown in Table 6. The solution was adjusted to pH 5.5 using 5 mM tartaric acid to obtain a peptide solution. The peptide solutions for which the pH was adjusted and the peptide solution before pH adjustment were filtered through a 0.22 μm membrane filter. The filtrates were filled into 6 ml vials in the amount of 1 ml for each vial and lyophilized.
The lyophilized samples were stored in an incubator at 60° C. and removed from the incubator after 4 and 8 weeks, respectively. […] was added to each vial removed. Solutions further diluted 50-fold were subjected to liquid chromatography to measure a peak area percentage of isomers other than the hirudin variant HV1C3.

[4] = no saccharose, mannitol 10 mg/ml
[5] = purified saccharose 1.6 mg/ml, mannitol 10 mg/ml
[6] = purified saccharose 1.6 mg/ml, no mannitol

B1: hirudin variant HV1C3: Hirudin variant having the amino acid sequence shown by Sequence No. 1 (JP Laid-open No. 173798/1992) (protein)
chain: VVYTDCTESGQNLCLCEGSNVCGQGNKCILGSDGEKNQCVTGEGTPKPQSHNQGDFEPIPEDAYDE
Remaining peptide (%) 1 wk ([1]; pH 5.5, acetic acid 30 mM): 98.3%
Remaining peptide (%) 2 wks ([1]; pH 5.5, acetic acid 30 mM): 95.6%
Remaining peptide (%) 3 wks ([1]; pH 5.5, acetic acid 30 mM): 94.2%
Remaining peptide (%) 4 wks ([1]; pH 5.5, acetic acid 30 mM): 93.3%
Remaining peptide (%) 5 wks ([1]; pH 5.5, acetic acid 30 mM): 92.0%
Remaining peptide (%) 6 wks ([1]; pH 5.5, acetic acid 30 mM): 91.9%
Remaining peptide (%) 7 wks ([1]; pH 5.5, acetic acid 30 mM): 91.4%
Remaining peptide (%) 8 wks ([1]; pH 5.5, acetic acid 30 mM): 90.6%
Remaining peptide (%) 1 wk ([1]; pH 5.5, citric acid 30 mM): 97.4%
Remaining peptide (%) 2 wks ([1]; pH 5.5, citric acid 30 mM): 95.8%
Remaining peptide (%) 3 wks ([1]; pH 5.5, citric acid 30 mM): 94.4%
Remaining peptide (%) 4 wks ([1]; pH 5.5, citric acid 30 mM): 93.3%
Remaining peptide (%) 5 wks ([1]; pH 5.5, citric acid 30 mM): 92.4%
Remaining peptide (%) 6 wks ([1]; pH 5.5, citric acid 30 mM): 91.6%
Remaining peptide (%) 7 wks ([1]; pH 5.5, citric acid 30 mM): 90.8%
Remaining peptide (%) 8 wks ([1]; pH 5.5, citric acid 30 mM): 89.8%
Remaining peptide (%) 1 wk ([1]; pH 5.5, phosphoric acid 30 mM): 77.9%
Remaining peptide (%) 2 wks ([1]; pH 5.5, phosphoric acid 30 mM): 66.6%
Remaining peptide (%) 3 wks ([1]; pH 5.5, phosphoric acid 30 mM): 61.4%
Remaining peptide (%) 4 wks ([1]; pH 5.5, phosphoric acid 30 mM): 58.1%
Remaining peptide (%) 5 wks ([1]; pH 5.5, phosphoric acid 30 mM): 57.3%
Remaining peptide (%) 6 wks ([1]; pH 5.5, phosphoric acid 30 mM): 57.6%
Remaining peptide (%) 1 wk ([1]; pH 5.5, tartaric acid 30 mM): 98.4%
Remaining peptide (%) 2 wks ([1]; pH 5.5, tartaric acid 30 mM): 97.6%
Remaining peptide (%) 3 wks ([1]; pH 5.5, tartaric acid 30 mM): 95.9%
Remaining peptide (%) 4 wks ([1]; pH 5.5, tartaric acid 30 mM): 95.2%
Remaining peptide (%) 5 wks ([1]; pH 5.5, tartaric acid 30 mM): 92.4%
Remaining peptide (%) 6 wks ([1]; pH 5.5, tartaric acid 30 mM): 92.2%
Remaining peptide (%) 7 wks ([1]; pH 5.5, tartaric acid 30 mM): 91.9%
Remaining peptide (%) 8 wks ([1]; pH 5.5, tartaric acid 30 mM): 90.6%
Remaining peptide (%) 1 wk ([1]; without pH adjustment): 96.9%
Remaining peptide (%) 2 wks ([1]; without pH adjustment): 94.2%
Remaining peptide (%) 3 wks ([1]; without pH adjustment): 92.3%
Remaining peptide (%) 4 wks ([1]; without pH adjustment): 90.9%
Remaining peptide (%) 5 wks ([1]; without pH adjustment): 89.9%
Remaining peptide (%) 6 wks ([1]; without pH adjustment): 88.2%
Remaining peptide (%) 7 wks ([1]; without pH adjustment): 87.2%
Remaining peptide (%) 8 wks ([1]; without pH adjustment): 86.1%
Remaining peptide (%) 1 wk ([2]; pH 5.0, 30 mM tartaric acid): 97.6%
Remaining peptide (%) 2 wks ([2]; pH 5.0, 30 mM tartaric acid): 96.1%
Remaining peptide (%) 3 wks ([2]; pH 5.0, 30 mM tartaric acid): 93.2%
Remaining peptide (%) 4 wks ([2]; pH 5.0, 30 mM tartaric acid): 91.8%
Remaining peptide (%) 5 wks ([2]; pH 5.0, 30 mM tartaric acid): 91.7%
Remaining peptide (%) 6 wks ([2]; pH 5.0, 30 mM tartaric acid): 89.9%
Remaining peptide (%) 7 wks ([2]; pH 5.0, 30 mM tartaric acid): 69.1%
Remaining peptide (%) 8 wks ([2]; pH 5.0, 30 mM tartaric acid): 86.6%
Remaining peptide (%) 1 wk ([2]; pH 5.5, 30 mM tartaric acid): 98.4%
Remaining peptide (%) 2 wks ([2]; pH 5.5, 30 mM tartaric acid): 97.6%
Remaining peptide (%) 3 wks ([2]; pH 5.5, 30 mM tartaric acid): 95.9%
Remaining peptide (%) 4 wks ([2]; pH 5.5, 30 mM tartaric acid): 95.2%
Remaining peptide (%) 5 wks ([2]; pH 5.5, 30 mM tartaric acid): 92.4%
Remaining peptide (%) 6 wks ([2]; pH 5.5, 30 mM tartaric acid): 92.2%
Remaining peptide (%) 7 wks ([2]; pH 5.5, 30 mM tartaric acid): 91.9%
Remaining peptide (%) 8 wks ([2]; pH 5.5, 30 mM tartaric acid): 90.6%
Remaining peptide (%) 1 wk ([2]; pH 6.0, 30 mM tartaric acid): 98.4%
Remaining peptide (%) 2 wks ([2]; pH 6.0, 30 mM tartaric acid): 97.6%
Remaining peptide (%) 3 wks ([2]; pH 6.0, 30 mM tartaric acid): 96.6%
Remaining peptide (%) 4 wks ([2]; pH 6.0, 30 mM tartaric acid): 96.1%
Remaining peptide (%) 5 wks ([2]; pH 6.0, 30 mM tartaric acid): 94.6%
Remaining peptide (%) 6 wks ([2]; pH 6.0, 30 mM tartaric acid): 93.6%
Remaining peptide (%) 7 wks ([2]; pH 6.0, 30 mM tartaric acid): 91.8%
Remaining peptide (%) 8 wks ([2]; pH 6.0, 30 mM tartaric acid): 92.2%
Remaining peptide (%) 1 wk ([2]; without pH adjustment): 96.9%
Remaining peptide (%) 2 wks ([2]; without pH adjustment): 94.2%
Remaining peptide (%) 3 wks ([2]; without pH adjustment): 92.3%
Remaining peptide (%) 4 wks ([2]; without pH adjustment): 90.9%
Remaining peptide (%) 5 wks ([2]; without pH adjustment): 89.9%
Remaining peptide (%) 6 wks ([2]; without pH adjustment): 88.2%
Remaining peptide (%) 7 wks ([2]; without pH adjustment): 87.2%
Remaining peptide (%) 8 wks ([2]; without pH adjustment): 86.1%
The amount of isomers (%) 4 weeks [3, 4]: 6.93%
The amount of isomers (%) 8 weeks [3, 4]: 7.99%
The amount of isomers (%) 4 weeks ([3]; no saccharose, no mannitol): 5.72%
The amount of isomers (%) 8 weeks ([3]; no saccharose, no mannitol): 6.13%
The amount of isomers (%) 4 weeks [3, 5]: 7.23%
The amount of isomers (%) 8 weeks [3, 5]: 8.58%
The amount of isomers (%) 4 weeks [3, 6]: 4.90%
The amount of isomers (%) 8 weeks [3, 6]: 5.00%
